Data taken from paper PMC3656769.

B1: Transferrin receptor 2 (hTfR2): 3-Mut (protein)
parent chain: MERLWGLFQRAQQLSPRSSQTVYQRVEGPRKGHLEEEEEDGEEGAETLAHFCPMELRGPEPLGSRPRQPNLIPWAAAGRRAAPYLVLTALLIFTGAFLLGYVAFRGSCQACGDSVLVVSEDVNYEPDLDFHQGRLYWSDLQAMFLQFLGEGRLEDTIRQTSLRERVAGSAGMAALTQDIRAALSRQKLDHVWTDTHYVGLQFPDPAHPNTLHWVDEAGKVGEQLPLEDPDVYCPYSAIGNVTGELVYAHYGRPEDLQDLRARGVDPVGRLLLVRVGVISFAQKVTNAQDFGAQGVLIYPEPADFSQDPPKPSLSSQQAVYGHVHLGTGDPYTPGFPSFNQTQFPPVASSGLPSIPAQPISADIASRLLRKLKGPVAPQEWQGSLLGSPYHLGPGPRLRLVVNNHRTSTPINNIFGCIEGRSEPDHYVVIGAQRDAWGPGAAKSAVGTAILLELVRTFSSMVSNGFRPRRSLLFISWDGGDFGSVGSTEWLEGYLSVLHLKAVVYVSLDNAVLGDDKFHAKTSPLLTSLIESVLKQVDSPNHSGQTLYEQVVFTNPSWDAEVIRPLPMDSSAYSFTAFVGVPAVEFSFMEDDQAYPFLHTKEDTYENLHKVLQGRLPAVAQAVAQLAGQLLIRLSHDRLLPLDFGRYGDVVLRHIGNLNEFSGDLKARGLTLQWVYSARGDYIRAAEKLRQEIYSSEERDERLTRMYNVRIMRVEFYFLSQYVSPADSPFRHIFMGRGDHTLGALLDHLRLLRSNSSGTPGATSSTGFQESRFRRQLALLTWTLQGAANALSGDVWNIDNNF
B2: Transferrin receptor 2 (hTfR2): N754A (protein)
parent chain: MERLWGLFQRAQQLSPRSSQTVYQRVEGPRKGHLEEEEEDGEEGAETLAHFCPMELRGPEPLGSRPRQPNLIPWAAAGRRAAPYLVLTALLIFTGAFLLGYVAFRGSCQACGDSVLVVSEDVNYEPDLDFHQGRLYWSDLQAMFLQFLGEGRLEDTIRQTSLRERVAGSAGMAALTQDIRAALSRQKLDHVWTDTHYVGLQFPDPAHPNTLHWVDEAGKVGEQLPLEDPDVYCPYSAIGNVTGELVYAHYGRPEDLQDLRARGVDPVGRLLLVRVGVISFAQKVTNAQDFGAQGVLIYPEPADFSQDPPKPSLSSQQAVYGHVHLGTGDPYTPGFPSFNQTQFPPVASSGLPSIPAQPISADIASRLLRKLKGPVAPQEWQGSLLGSPYHLGPGPRLRLVVNNHRTSTPINNIFGCIEGRSEPDHYVVIGAQRDAWGPGAAKSAVGTAILLELVRTFSSMVSNGFRPRRSLLFISWDGGDFGSVGSTEWLEGYLSVLHLKAVVYVSLDNAVLGDDKFHAKTSPLLTSLIESVLKQVDSPNHSGQTLYEQVVFTNPSWDAEVIRPLPMDSSAYSFTAFVGVPAVEFSFMEDDQAYPFLHTKEDTYENLHKVLQGRLPAVAQAVAQLAGQLLIRLSHDRLLPLDFGRYGDVVLRHIGNLNEFSGDLKARGLTLQWVYSARGDYIRAAEKLRQEIYSSEERDERLTRMYNVRIMRVEFYFLSQYVSPADSPFRHIFMGRGDHTLGALLDHLRLLRSNSSGTPGATSSTGFQESRFRRQLALLTWTLQGAANALSGDVWNIDNNF
B3: Transferrin receptor 2 (hTfR2): N240A (protein)
parent chain: MERLWGLFQRAQQLSPRSSQTVYQRVEGPRKGHLEEEEEDGEEGAETLAHFCPMELRGPEPLGSRPRQPNLIPWAAAGRRAAPYLVLTALLIFTGAFLLGYVAFRGSCQACGDSVLVVSEDVNYEPDLDFHQGRLYWSDLQAMFLQFLGEGRLEDTIRQTSLRERVAGSAGMAALTQDIRAALSRQKLDHVWTDTHYVGLQFPDPAHPNTLHWVDEAGKVGEQLPLEDPDVYCPYSAIGNVTGELVYAHYGRPEDLQDLRARGVDPVGRLLLVRVGVISFAQKVTNAQDFGAQGVLIYPEPADFSQDPPKPSLSSQQAVYGHVHLGTGDPYTPGFPSFNQTQFPPVASSGLPSIPAQPISADIASRLLRKLKGPVAPQEWQGSLLGSPYHLGPGPRLRLVVNNHRTSTPINNIFGCIEGRSEPDHYVVIGAQRDAWGPGAAKSAVGTAILLELVRTFSSMVSNGFRPRRSLLFISWDGGDFGSVGSTEWLEGYLSVLHLKAVVYVSLDNAVLGDDKFHAKTSPLLTSLIESVLKQVDSPNHSGQTLYEQVVFTNPSWDAEVIRPLPMDSSAYSFTAFVGVPAVEFSFMEDDQAYPFLHTKEDTYENLHKVLQGRLPAVAQAVAQLAGQLLIRLSHDRLLPLDFGRYGDVVLRHIGNLNEFSGDLKARGLTLQWVYSARGDYIRAAEKLRQEIYSSEERDERLTRMYNVRIMRVEFYFLSQYVSPADSPFRHIFMGRGDHTLGALLDHLRLLRSNSSGTPGATSSTGFQESRFRRQLALLTWTLQGAANALSGDVWNIDNNF
B4: Transferrin receptor 2 (hTfR2): N339A (protein)
parent chain: MERLWGLFQRAQQLSPRSSQTVYQRVEGPRKGHLEEEEEDGEEGAETLAHFCPMELRGPEPLGSRPRQPNLIPWAAAGRRAAPYLVLTALLIFTGAFLLGYVAFRGSCQACGDSVLVVSEDVNYEPDLDFHQGRLYWSDLQAMFLQFLGEGRLEDTIRQTSLRERVAGSAGMAALTQDIRAALSRQKLDHVWTDTHYVGLQFPDPAHPNTLHWVDEAGKVGEQLPLEDPDVYCPYSAIGNVTGELVYAHYGRPEDLQDLRARGVDPVGRLLLVRVGVISFAQKVTNAQDFGAQGVLIYPEPADFSQDPPKPSLSSQQAVYGHVHLGTGDPYTPGFPSFNQTQFPPVASSGLPSIPAQPISADIASRLLRKLKGPVAPQEWQGSLLGSPYHLGPGPRLRLVVNNHRTSTPINNIFGCIEGRSEPDHYVVIGAQRDAWGPGAAKSAVGTAILLELVRTFSSMVSNGFRPRRSLLFISWDGGDFGSVGSTEWLEGYLSVLHLKAVVYVSLDNAVLGDDKFHAKTSPLLTSLIESVLKQVDSPNHSGQTLYEQVVFTNPSWDAEVIRPLPMDSSAYSFTAFVGVPAVEFSFMEDDQAYPFLHTKEDTYENLHKVLQGRLPAVAQAVAQLAGQLLIRLSHDRLLPLDFGRYGDVVLRHIGNLNEFSGDLKARGLTLQWVYSARGDYIRAAEKLRQEIYSSEERDERLTRMYNVRIMRVEFYFLSQYVSPADSPFRHIFMGRGDHTLGALLDHLRLLRSNSSGTPGATSSTGFQESRFRRQLALLTWTLQGAANALSGDVWNIDNNF

Assays:
Conditions in all cases: glycan lost; control: wild type
[1] = surface biotinylation, FLAG IP, nonreducing Avidin-HRP blot, Hep3B
[2] = confocal immunofluorescence, nonpermeabilized HEK 293
[3] = cell surface biotinylation, Western, HEK 293
[4] = nonreducing SDS-PAGE Western, Hep3B stable cells
[5] = Western after 12 h holo-Tf, Hep3B transient and stable

| Protein | localisation_or_trafficking [1] | localisation_or_trafficking [2] | localisation_or_trafficking [3] | oligomerisation [4] | other: holo-Tf-induced stabilisation (protein level), fold_change [5] |
| --- | --- | --- | --- | --- | --- |
| B1 | no change | no change | no change | decreases |  |
| B2 |  |  |  |  | no change |
| B3 |  |  |  |  | no change |
| B4 |  |  |  |  | no change |
